This note sets out measurements from article PMC11535546.

The test addresses VASP (UniProt P50552). Briefly: co-immunoprecipitation, immunoblot. The note with it: reference: wild-type Zyxin; sites S142,S143.

As for “Zyxin (from UniProt Q15942) Zyxin S142A/S143A”, the “binding against the reference” value is recorded as “lost”.
